In US20260174847A1, “METHODS OF TREATING DIGESTIVE DISEASES AND COMPOSITIONS THEREOF” (PTM Therapeutics, Inc., priority 2023, published 2026) one finds Kd data, which are given here for seven molecules.

The labels stand for the following.
B1: Clone 4770: Humanized IgG1 antibody, heavy chain variable region HvCh3 (SEQ ID NO: 3), light chain LiCh2 (SEQ ID NO: 6) (antibody, V domains shown)
VH: EVQLVESGGGLVQPGGSLRLSCAASGFTFSTNAMSWVRQAPGKGLEWVARLRPKSDNYATYYADSVKGRFTISRDDSKNTLYLQMNSLRAEDTAVYYCVTGTGFWGQGTTLTVSS
VL: DIVMTQSPDSLAVSLGERVTMNCKSSQSLLNSGNQKNYLTWYQQKPGQPPKLLIYWTSTRESGVPDRFSGSGSGTDFTLTISSVQAEDVAVYYCQNDYTSPYTFGQGTKLEIK
B2: Clone 4772: Humanized IgG1 antibody, heavy chain variable region HvCh3 (SEQ ID NO: 3), light chain LiCh4 (SEQ ID NO: 8) (antibody, V domains shown)
VH: B1 VH
VL: B1 VL with I54F
B3: Clone 4766: Humanized IgG1 antibody, heavy chain variable region HvCh2 (SEQ ID NO: 2), light chain LiCh2 (SEQ ID NO: 6) (antibody, V domains shown)
VH: B1 VH with D76N
VL: B1 VL
B4: Clone 4769: Humanized IgG1 antibody, heavy chain variable region HvCh3 (SEQ ID NO: 3), light chain LiCh1 (SEQ ID NO: 5) (antibody, V domains shown)
VH: B1 VH
VL: B1 VL with V19A, M21I, V84L
B5: Clone 4765: Humanized IgG1 antibody, heavy chain variable region HvCh2 (SEQ ID NO: 2), light chain LiCh1 (SEQ ID NO: 5) (antibody, V domains shown)
VH: B1 VH with D76N
VL: B1 VL with V19A, M21I, V84L
B6: Clone 4771: Humanized IgG1 antibody, heavy chain variable region HvCh3 (SEQ ID NO: 3), light chain LiCh3 (SEQ ID NO: 7) (antibody, V domains shown)
VH: B1 VH
VL: B1 VL with V19A, M21I, I54F, V84L
B7: Clone 4768: Humanized IgG1 antibody, heavy chain variable region HvCh2 (SEQ ID NO: 2), light chain LiCh4 (SEQ ID NO: 8) (antibody, V domains shown)
VH: B1 VH with D76N
VL: B1 VL with I54F

A word on the Kd: it is a measure of binding affinity in units of concentration. High values mean lower affinity, low ones higher affinity.

Positions count from the first letter of the chain named.

The nature of one assay: SPR (Biocore T100) binding affinity to sLeA. Particulars: Example 3, Table 7, mean. On the procedure:
(§1) An in vitro evaluation of the binding affinity to sLeA and sLeC of the humanized antibodies from Example 1 were performed using a Biocore T100 SPR biosensor using a CM7 sensor chip with PBS-p (0.005% Tween-20) running buffer at 25 degrees Celsius. The antibodies were couples to ˜30,000 RU at 50 ug/ml in 10 mM NaAcetate pH 5.0 over an NHS/EDC activated surface. A reference surface was activated and blocked to serve as a control. Carbohydrate samples (sLeA, sLeC and sialyl Lewis X (all from Dextra Labs)) were dissolved in PBS-p running buffer up to a stock concentration of 10 mM. Each was then prepared in a 2-fold dilution series up to 300 μM and each concentration series was tested over the antibody surfaces. Response data were processed by subtracting the responses from the reference surfaces as well as a buffer injection. Binding constants were determined at 25 degrees Celsius.
(§2) Seven of the humanized antibody clones from Example 1 were tested for binding affinity to sLeA, sLeC and […]. Methods used were similar to those described in Example 2 above, except with sLeX only at one concentration of 300 μM.
On to B1, for which binding was put at a Kd of 69.1 µM.
The same measure, in the same setting: under B2 stands 48.3 µM; under B3, 621 µM.
Take B4: the Kd was found to be 81.3 µM.
Still for that read-out and setting: under B5 stands 732 µM; under B6, 59.2 µM.
As to B7, the Kd came to 552 µM.

A short description of a further assay: SPR (Biocore T100) binding affinity to sLeC. Conditions: Example 3, Table 7, mean. The procedure:
as §1, §2
In the case of B1, the Kd came to 93.2 µM. This counts as double-digit micromolar.
As to B2, the Kd turned out to be 77.1 µM.
For the molecule B3, the affinity, expressed as Kd, was 538 µM.
On the same count and under the same terms, under B4 stands 104 µM; under B5, 306 µM.
In the case of B6, the Kd came out at 85.4 µM.
On the same count and under the same terms, then B7, with 460 µM.
